According to article PMC10786891, “Massively parallel profiling of RNA-targeting CRISPR-Cas13d”:
Where a chain is given by its changes, count along the chain named. Numbers in names are those of the source.

T1: EsCas13d, nuclease-dead (Eubacterium siraeum, UniProt B0MS50, R295A;H300A;R849A;H854A)
T1 sequence: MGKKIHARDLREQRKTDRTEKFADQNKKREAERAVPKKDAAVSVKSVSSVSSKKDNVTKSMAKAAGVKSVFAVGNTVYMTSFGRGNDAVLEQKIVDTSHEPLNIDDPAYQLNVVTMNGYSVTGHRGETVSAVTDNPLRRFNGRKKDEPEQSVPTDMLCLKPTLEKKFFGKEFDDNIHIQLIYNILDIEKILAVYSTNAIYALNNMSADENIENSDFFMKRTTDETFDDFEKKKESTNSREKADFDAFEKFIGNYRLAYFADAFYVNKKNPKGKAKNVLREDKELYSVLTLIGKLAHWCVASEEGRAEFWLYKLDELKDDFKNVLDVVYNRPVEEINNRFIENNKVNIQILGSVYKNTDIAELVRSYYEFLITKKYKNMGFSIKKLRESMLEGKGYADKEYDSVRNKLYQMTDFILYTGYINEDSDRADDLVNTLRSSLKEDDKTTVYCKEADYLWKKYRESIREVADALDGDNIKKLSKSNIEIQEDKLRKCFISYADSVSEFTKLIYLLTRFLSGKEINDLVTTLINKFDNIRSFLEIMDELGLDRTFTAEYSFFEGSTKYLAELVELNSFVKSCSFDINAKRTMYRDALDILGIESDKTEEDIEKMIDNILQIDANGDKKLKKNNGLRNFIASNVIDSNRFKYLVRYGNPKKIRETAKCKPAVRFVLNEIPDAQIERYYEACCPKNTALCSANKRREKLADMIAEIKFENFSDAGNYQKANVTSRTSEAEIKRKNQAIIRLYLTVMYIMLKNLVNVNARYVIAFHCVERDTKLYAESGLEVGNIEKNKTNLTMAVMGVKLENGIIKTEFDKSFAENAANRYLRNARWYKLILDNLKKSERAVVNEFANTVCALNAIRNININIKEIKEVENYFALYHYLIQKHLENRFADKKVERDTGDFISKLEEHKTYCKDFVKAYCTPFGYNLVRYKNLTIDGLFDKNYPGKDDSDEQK

B1: target 1 MT 5'PFS GGU 3'PFS ACU (mixed)
RNA 1: CACCCGUGCAAAAAUGCAGGGGUCUAAAACUGAGCGGAUAACCUCUCUAUGG
RNA 2: GGGAAUGGAUCCACAUCUACGAAUUCGGUCCAUAGAGAGGUUAUCCGCUCAACUAGAUCGGAAGAGCACACGU
B2: target 1 MT 5'PFS GUU 3'PFS CAU (mixed)
RNA 1: B1 RNA 1
RNA 2: B1 RNA 2 with G28U, A52C, C53A
B3: target 1 MT 5'PFS CAC 3'PFS ACU (mixed)
RNA 1: B1 RNA 1
RNA 2: B1 RNA 2 with G27C, G28A, U29C
B4: target 1 MT 5'PFS GCC 3'PFS AGG (mixed)
RNA 1: B1 RNA 1
RNA 2: B1 RNA 2 with G28C, U29C, C53G, U54G
B5: target 1 MT 5'PFS AAA 3'PFS CUG (mixed)
RNA 1: B1 RNA 1
RNA 2: B1 RNA 2 with G27A, G28A, U29A, A52C, C53U, U54G
B6: target 1 MT 5'PFS AAU 3'PFS UUG (mixed)
RNA 1: B1 RNA 1
RNA 2: B1 RNA 2 with G27A, G28A, A52U, C53U, U54G
B7: target 1 MT 5'PFS AUA 3'PFS CCG (mixed)
RNA 1: B1 RNA 1
RNA 2: B1 RNA 2 with G27A, G28U, U29A, A52C, U54G
B8: target 1 MT 5'PFS CAC 3'PFS ACA (mixed)
RNA 1: B1 RNA 1
RNA 2: B1 RNA 2 with G27C, G28A, U29C, U54A
B9: target 1 MT 5'PFS CCU 3'PFS CUA (mixed)
RNA 1: B1 RNA 1
RNA 2: B1 RNA 2 with G27C, G28C, A52C, C53U, U54A
B10: target 1 MT 5'PFS AAU 3'PFS UUC (mixed)
RNA 1: B1 RNA 1
RNA 2: B1 RNA 2 with G27A, G28A, A52U, C53U, U54C
B11: target 1 MT 5'PFS UCC 3'PFS CGA (mixed)
RNA 1: B1 RNA 1
RNA 2: B1 RNA 2 with G27U, G28C, U29C, A52C, C53G, U54A
B12: target 1 MT 5'PFS GCU 3'PFS UCG (mixed)
RNA 1: B1 RNA 1
RNA 2: B1 RNA 2 with G28C, A52U, U54G
B13: target 1 MT 5'PFS GCU 3'PFS CCG (mixed)
RNA 1: B1 RNA 1
RNA 2: B1 RNA 2 with G28C, A52C, U54G
B14: target 1 MT 5'PFS CCA 3'PFS UUU (mixed)
RNA 1: B1 RNA 1
RNA 2: B1 RNA 2 with G27C, G28C, U29A, A52U, C53U
B15: target 1 MT 5'PFS GCC 3'PFS AGU (mixed)
RNA 1: B1 RNA 1
RNA 2: B1 RNA 2 with G28C, U29C, C53G
B16: target 1 MT 5'PFS CAG 3'PFS UAU (mixed)
RNA 1: B1 RNA 1
RNA 2: B1 RNA 2 with G27C, G28A, U29G, A52U, C53A
B17: target 1 MT 5'PFS AGA 3'PFS CGA (mixed)
RNA 1: B1 RNA 1
RNA 2: B1 RNA 2 with G27A, U29A, A52C, C53G, U54A
B18: target 1 insG 3' of 18,insC 3' of 11 (mixed)
RNA 1: B1 RNA 1
RNA 2: GGGAAUGGAUCCACAUCUACGAAUUCGUACCAUAGGAGAGGUCUAUCCGCUCACCGAGAUCGGAAGAGCACACGU
B19: target 1 MT 5'PFS GUC 3'PFS GCG (mixed)
RNA 1: B1 RNA 1
RNA 2: B1 RNA 2 with G28U, U29C, A52G, U54G
B20: target 1 C4A,A14G (mixed)
RNA 1: B1 RNA 1
RNA 2: B1 RNA 2 with G28U, U29A, A38G, C48A, A52C, U54G
B21: target 1 MT 5'PFS UAG 3'PFS ACA (mixed)
RNA 1: B1 RNA 1
RNA 2: B1 RNA 2 with G27U, G28A, U29G, U54A
B22: target 1 MT 5'PFS GCA 3'PFS AUC (mixed)
RNA 1: B1 RNA 1
RNA 2: B1 RNA 2 with G28C, U29A, C53U, U54C
B23: target 1 MT 5'PFS GCC 3'PFS AGC (mixed)
RNA 1: B1 RNA 1
RNA 2: B1 RNA 2 with G28C, U29C, C53G, U54C
B24: target 1 MT 5'PFS UAG 3'PFS ACC (mixed)
RNA 1: B1 RNA 1
RNA 2: B1 RNA 2 with G27U, G28A, U29G, U54C
B25: target 1 MT 5'PFS GCU 3'PFS CCU (mixed)
RNA 1: B1 RNA 1
RNA 2: B1 RNA 2 with G28C, A52C
B26: target 1 MT 5'PFS GCU 3'PFS UCA (mixed)
RNA 1: B1 RNA 1
RNA 2: B1 RNA 2 with G28C, A52U, U54A
B27: target 1 MT 5'PFS AGA 3'PFS CGG (mixed)
RNA 1: B1 RNA 1
RNA 2: B1 RNA 2 with G27A, U29A, A52C, C53G, U54G
B28: target 1 MT 5'PFS CAC 3'PFS ACG (mixed)
RNA 1: B1 RNA 1
RNA 2: B1 RNA 2 with G27C, G28A, U29C, U54G
B29: target 1 MT 5'PFS GCA 3'PFS AUA (mixed)
RNA 1: B1 RNA 1
RNA 2: B1 RNA 2 with G28C, U29A, C53U, U54A
B30: target 1 MT 5'PFS GCC 3'PFS AGA (mixed)
RNA 1: B1 RNA 1
RNA 2: B1 RNA 2 with G28C, U29C, C53G, U54A
B31: target 1 MT 5'PFS GCU 3'PFS UCC (mixed)
RNA 1: B1 RNA 1
RNA 2: B1 RNA 2 with G28C, A52U, U54C
B32: target 1 MT 5'PFS GGG 3'PFS CGA (mixed)
RNA 1: B1 RNA 1
RNA 2: B1 RNA 2 with U29G, A52C, C53G, U54A
B33: target 1 MT 5'PFS GCA 3'PFS AUU (mixed)
RNA 1: B1 RNA 1
RNA 2: B1 RNA 2 with G28C, U29A, C53U
B34: target 1 MT 5'PFS GCU 3'PFS UCU (mixed)
RNA 1: B1 RNA 1
RNA 2: B1 RNA 2 with G28C, A52U
B35: target 1 MT 5'PFS CUU 3'PFS UGC (mixed)
RNA 1: B1 RNA 1
RNA 2: B1 RNA 2 with G27C, G28U, A52U, C53G, U54C
B36: target 1 MT 5'PFS GCA 3'PFS AUG (mixed)
RNA 1: B1 RNA 1
RNA 2: B1 RNA 2 with G28C, U29A, C53U, U54G
B37: target 1 MT 5'PFS UAG 3'PFS ACG (mixed)
RNA 1: B1 RNA 1
RNA 2: B1 RNA 2 with G27U, G28A, U29G, U54G
B38: target 1 MT 5'PFS UGU 3'PFS AAU (mixed)
RNA 1: B1 RNA 1
RNA 2: B1 RNA 2 with G27U, C53A
B39: target 1 MT 5'PFS AGA 3'PFS CGC (mixed)
RNA 1: B1 RNA 1
RNA 2: B1 RNA 2 with G27A, U29A, A52C, C53G, U54C
B40: target 1 C2A,U11C (mixed)
RNA 1: B1 RNA 1
RNA 2: B1 RNA 2 with G28U, U29A, U41C, C50A, A52C, U54G

biological target: T1, EsCas13d, nuclease-dead; assay: crRNA (strand 1, pre-loaded); Mg2+; 40 mM Tris-HCl pH 7.5, 150 mM NaCl, 6 mM MgCl2, 1 mM DTT, 0.1% Tween-20, 0.2 mg/ml BSA; 25 C; 10 min per concentration, then washed; settings: tags: His6-TwinStrep-SUMO cleaved; N-terminal SNAP kept (SNAP-Surface 488); label: 3' end held by stalled T7 RNA polymerase

Binder	Kd [nM]
B1	~63
B2	22.5 ± 7
B3	21 ± 7.5
B4	37 ± 9.5
B5	22.5 ± 5
B6	72 ± 26
B7	62 ± 26.5
B8	~45.5
B9	12.5 ± 6
B10	20 ± 5.5
B11	~48.5
B12	39 ± 8
B13	40 ± 10.5
B14	2.4 ± 0.9
B15	27 ± 7
B16	51.5 ± 21
B17	~90
B18	99 ± 19
B19	15.5 ± 7.5
B20	14.8 ± 1.5

Binder	Kd [nM]
B21	31.5 ± 9.5
B22	~28
B23	13.1 ± 3.8
B24	28.5 ± 6.5
B25	~24.5
B26	27.5 ± 6.5
B27	41.5 ± 12.5
B28	~22
B29	25.5 ± 8.5
B30	24.5 ± 8
B31	37.5 ± 13
B32	~71
B33	15.5 ± 2.95
B34	30 ± 7
B35	22 ± 7
B36	24.5 ± 6
B37	19.1 ± 2.85
B38	~100
B39	37 ± 11
B40	9.5 ± 0.7
